Values quoted from earlier work in patent US20250241861A1, “Mechano-Sensitive Microcapsules For Drug Delivery” (The Trustees of the University of Pennsylvania, priority 2015, published 2025).

Experiments:
engineered cartilage = conditions: 10 ng/ml, 5 days post-injury
[1] = test system: MMP activity in chondrocytes; conditions: 10 ng/ml, after inflammatory stimulation of chondrocytes

B1: TGF-β3: transforming growth factor beta, anabolic compound / chondrogenic factor (protein, UniProt P10600 301-412, looked up)
Transforming growth factor …: ALDTNYCFRNLEENCCVRPLYIDFRQDLGWKWVHEPKGYYANFCSGPCPYLRSADTTHSTVLGLYNTLNPEASASPCCVPQDLEPLTILYYVGRTPKVEQLSNMVVKSCKCS
reduction of GAG loss compared to injured controls (engineered cartilage): about 30% | MMP activity [1]: reduce MMP activity
